Measured values reported in patent US20050079156A1, “Method of treating endometreosis” (priority 2001, published 2005).

How the values were obtained:
Type in all cases: cell-based
aromatase mRNA = assay: Aromatase mRNA expression in human adipocytes by RT-PCR; conditions: for aromatase mRNA expression (induction by cytokine alone): cytokine 0.1 ug/ml
Protocol: Adipocyte cultures were treated with IL-1-β, IFN-γ, TNF-α, and combinations of IL-1-β, and IFN-γ and TNF-α and IFN-γ. Subsequently, total RNA from cultured adipocytes was isolated using conventional methods. The reverse transcriptase polymerase chain reaction (RT-PCR) was performed using aromatase specific primers. The amplified aromatase cDNA fragments produced by RT-PCR were separated on an agarose gel. As shown in the FIG. 3, IL-1 and TNF alone induce transcription of aromatase mRNA compared to untreated control. However, the administration of IFN-γ inhibits the transcription of aromatase mRNA when given together IL-1 or TNF.
Human adipocytes (from one flask with 100% confluence) obtained from Zen-Bio,Inc were cultured for 72 hr in the presence or absence of 0.1 ug/ml of different Cytokines as indicated with and without IFN-γ (0.1 ug/ml, all Cytokines were purchased from R&D except FAS ligand, TRAIL and OX40 Ligands were obtained from Alexis). Total RNA was extracted for RT-PCR (30 cycles with 50 ng RNA/each sample) using human aromatase and GAPDH specific oligos (20 mers).

human adipocytes = assay: Estradiol production in cultured human adipocytes (estradiol in conditioned media); conditions: for estradiol production (effect of cytokine alone): human adipocytes, different doses of IL-1α and IL-1β; for estradiol production stimulated by a mixture of 6 cytokines: mix of IL-1b, TNF-α, IL-6, IL-8, IL-11, oncostatin M 0.01 ug/ml each, IFN-α 1 ug/ml, IFN-b 2 ug/ml, FIG. 4
Protocol: Human subcutaneous cultured adipocytes, catalog nos. SP-1012, SP-1024, SP-1096, SP-75, or SP-25 were purchased from Zen-Bio, Inc. (Research Triangle Park, N.C.) and cultured according to the manufacturer's instructions.
Human adipocytes (approximately 100,000 cells/well) were cultured for 24 hr in the presence or absence of different doses of IL-1α and IL-1β (as indicated) with and without IFN-γ (0.1 ug/ml, IL-1α, IL-1β and IFN-γ were purchased from R&D). The amount of estradiol release in the conditioned media was determined by radioimmunoassay for estradiol using the Active™ Estradiol EIA kit according to the manufacturer's instructions (catalog no. DSL-10-4300, Diagnostic Systems Laboratories, Inc., Webster, Tex.). Each value represents the mean±S.E.M. of triplicate wells.
Human adipocytes (100,000 cells/well) were cultured for 72 hr with and without increasing doses of IFN-γ (0.0001 to 1 ug/ml, purchased from R&D). The amount of estradiol in the conditioned media was determined by radioimmunoassay as described in Example 1. Each value represents the mean±S.E.M. of triplicate wells.
Human adipocytes (100,000 cells/well) were cultured for 72 hr in the presence or absence of different doses of the mix Cytokines (IL-1b, TNF-α, IL-6, IL-8, IL-11 and oncostatin M, 0.01 ug/ml/each—dilution as indicated) with and without IFN-γ (0.1 ug/ml), […] (1 ug/ml) or IFN-b (2 ug/ml). IFN-α was purchased from PBL while IFN-b was obtained from Serono. The amount of estradiol release in the conditioned media was determined by radioimmunoassay as described in Example 1. Each value represents the mean±S.E.M. of triplicate wells.
(§1) Human adipocytes (100,000 cells/well) obtained from Zen-Bio,Inc were cultured for 48 hr in the presence or absence of different doses of the cytokine mix (dilution as indicated) with and without IFN-γ (0.1 ug/ml). The amount of estradiol release in the conditioned media was determined by radioimmunoassay as described in Example 1. Each value represents the mean±S.E.M. of triplicate wells.
as §1, with “Zen-Bio, Inc” for “Zen-Bio,Inc”, “72” for “48”, “LPS (as” for “the cytokine mix (dilution as”, “ug/ml, LPS were purchased from Sigma).” for “ug/ml).”
as §1, with “Zen-Bio, Inc” for “Zen-Bio,Inc”, “the” for “the cytokine”, “mix LPS, PMA and PGE2” for “mix”, “ug/ml). IFN-γ was added at the same as the mix, 8 hr or 24 hr after the mix of the LPS, PMA and PGE2 which were purchased from Sigma.” for “ug/ml).”

human preadipocytes = assay: Cytokine stimulation of estradiol production in human preadipocytes; conditions: 72 hr, FIG. 9
Protocol: […] The amount of estradiol release in the conditioned media was determined by radioimmunoassay for estradiol using the Active™ Estradiol EIA kit according to the manufacturer's instructions (catalog no. DSL-10-4300, Diagnostic Systems Laboratories, Inc., Webster, Tex.). Each value represents the mean±S.E.M. of triplicate wells. Similar results were reproducible in 10 additional experiments using cells derived from either male or female patients.

In the case of “LIF: leukemia inhibitory factor, cytokine”, the “aromatase mRNA expression (induction by cytokine alone)” value (from here on “aromatase mRNA expression”) (aromatase mRNA; 72 hr, FIG. 8) is reported as “induce”.

With “IL-1β: interleukin-1 beta, cytokine purchased from R&D” the “transcription of aromatase mRNA (cytokine alone compared to untreated control)” value (aromatase mRNA; adipocyte cultures, FIG. 3) was “induce”, the “aromatase mRNA expression” value (aromatase mRNA; 72 hr, FIG. 8) was “induce” and the “estradiol production (effect of cytokine alone)” value (human adipocytes; 24 hr, FIG. 1) was “significantly increased estradiol production”.

In the case of “TRAIL: tumor necrosis factor-related apoptosis-inducing ligand, obtained from Alexis”, the “aromatase mRNA expression” value (aromatase mRNA; 72 hr, FIG. 8) is reported as “induce”.

In the case of IGF-1: insulin growth factor-1, the “estradiol production (stimulation by cytokine)” value (human preadipocytes; cytokine 5 ug/ml) is reported as “stimulate”.

GH: human growth hormone was tested, and the “estradiol production (stimulation by cytokine)” value (human preadipocytes; cytokine 5 ug/ml) was “stimulate”.

IL-6: interleukin-6, cytokine was tested, and the “aromatase mRNA expression” value (aromatase mRNA; 72 hr, FIG. 8) was “induce” and the “estradiol production (stimulation by cytokine)” value (human preadipocytes; cytokine 0.5 ug/ml) was “stimulate”.

In the case of IL-8: interleukin-8, cytokine, the “estradiol production (stimulation by cytokine)” value (human preadipocytes; cytokine 0.5 ug/ml) is reported as “stimulate”.

With IFN-α the “estradiol production stimulated by a mixture of 6 cytokines” value (human adipocytes; 72 hr, IFN-γ 0.1 ug/ml) was “do not inhibit”.

B1: OX40L: OX40 Ligand, obtained from Alexis (protein, UniProt P23510 1-183, looked up)
Tumor necrosis factor ligand …: MERVQPLEENVGNAARPRFERNKLLLVASVIQGLGLLLCFTYICLHFSALQVSHRYPRIQSIKVQFTEYKKEKGFILTSQKEDEIMKVQNNSVIINCDGFYLISLKGYFSQEVNISLHYQKDEEPLFQLKKVRSVNSLMVASLTYKDKVYLNVTTDNTSLDDFHVNGGELILIHQNPGEFCVL
For B1, the “aromatase mRNA expression” value (aromatase mRNA; 72 hr, FIG. 8) was “induce”.

B2: IL-11: interleukin-11, cytokine (protein, UniProt P20809 22-199, looked up)
Interleukin-11: PGPPPGPPRVSPDPRAELDSTVLLTRSLLADTRQLAAQLRDKFPADGDHNLDSLPTLAMSAGALGALQLPGVLTRLRADLLSYLRHVQWLRRAGGSSLKTLEPELGTLQARLDRLLRRLQLLMSRLALPQPPPDPPAPPLAPPSSAWGGIRAAHAILGGLHLTLDWAVRGLLLLKTRL
For B2, the “aromatase mRNA expression” value (aromatase mRNA; 72 hr, FIG. 8) was “induce” and the “estradiol production (stimulation by cytokine)” value (human preadipocytes; cytokine 0.5 ug/ml) was “stimulate”.

B3: IL-1α: interleukin-1-alpha, cytokine purchased from R&D (protein, UniProt P01583 113-271, looked up)
Interleukin-1 alpha: SAPFSFLSNVKYNFMRIIKYEFILNDALNQSIIRANDQYLTAAALHNLDEAVKFDMGAYKSSKDDAKITVILRISKTQLYVTAQDEDQPVLLKEMPEIPKTITGSETNLLFFWETHGTKNYFTSVAHPNLFIATKQDYWVCLAGGPPSITDFQILENQA
B3 was tested, and the “estradiol production (effect of cytokine alone)” value (human adipocytes; 24 hr, FIG. 1) was “significantly increased estradiol production”.

B4: IFN-γ: interferon-gamma, recombinant human, purchased from R&D (protein, UniProt P01579 24-161, looked up)
Interferon gamma: QDPYVKEAENLKKYFNAGHSDVADNGTLFLGILKNWKEESDRKIMQSQIVSFYFKLFKNFKDDQSIQKSVETIKEDMNVKFFNSNKKKRDDFEKLTNYSVTDLNVQRKAIHELIQVMAELSPAAKTGKRKRSQMLFRG
For B4, the “constitutive aromatase mRNA” value (aromatase mRNA; adipocyte cultures, Example 3) was “Inhibited”, the “transcription of aromatase mRNA when given together IL-1 or TNF” value (aromatase mRNA; adipocyte cultures, FIG. 3) was “inhibits” and the “induced expression of aromatase mRNA by TRAIL, OX40, IL-1β, IL-6, IL-11 and LIF” value (aromatase mRNA; cytokines 0.1 ug/ml, IFN-γ 0.1 ug/ml, 72 hr, FIG. 8) was “inhibits”. For the same molecule, the “estradiol production stimulated by a mixture of 15 cytokines” value (human adipocytes; 15 cytokines 0.01 ug/ml each, 48 hr, IFN-γ 0.1 ug/ml, FIG. 5) was “inhibited”, the “LPS stimulated estradiol production” value (human adipocytes; 72 hr, IFN-γ 0.1 ug/ml, FIG. 6) was “inhibits” and the “IL-1α and IL-1β induced estradiol production” value (human adipocytes; IFN-γ 0.1 ug/ml, 24 hr, FIG. 1) was “inhibits”. For the same molecule, the constitutive estradiol production (human adipocytes; IFN-γ 0.0001 to 1 ug/ml, 72 hr, FIG. 2) was “dose-dependent inhibitory effect”, the “PMA, LPS and PGE2 stimulated estradiol production” value (human adipocytes; mix PMA 5 ng/ml, LPS 10 ug/ml, PGE2 10 ug/ml, 48 hr, IFN-γ 0.1 ug/ml added at same time, 8 hr or 24 hr after the mix, FIG. 7) was “inhibits” and the “estradiol production stimulated by a mixture of 6 cytokines” value (human adipocytes; 72 hr, IFN-γ 0.1 ug/ml) was “inhibits”.

B5: OSM: oncostatin M, cytokine (protein, UniProt P13725 26-221, looked up)
Oncostatin-M: AAIGSCSKEYRVLLGQLQKQTDLMQDTSRLLDPYIRIQGLDVPKLREHCRERPGAFPSEETLRGLGRRGFLQTLNATLGCVLHRLADLEQRLPKAQDLERSGLNIEDLEKLQMARPNILGLRNNIYCMAQLLDNSDTAEPTKAGRGASQPPTPTPASDAFQRKLEGCRFLHGYHRFMHSVGRVFSKWGESPNRSRR
For B5, the “estradiol production (stimulation by cytokine)” value (human preadipocytes; cytokine 0.5 ug/ml) was “stimulate”.
